Experimental data as given in paper doi:10.1101/2020.09.10.281741.
pKd: −log10 of the molar value.

Legend:
[1] = target: His6-HMW1ct (C-terminal region of the HMW1A adhesin of H. influenzae, non-glycosylated) (H. influenzae); assay: SPR
[2] = target: Glc-HMW1ct (glycosylated HMW1ct, mixture of 7,8,9,10-Glc glycoforms) (H. influenzae); assay: SPR

ApNGT-His6 (N-glycosyltransferase from Actinobacillus pleuropneumoniae) (from UniProt A3N2T3 1-620) (enzyme)
pKd [1]: 5.23 | pKd [2]: 5.01
